Tests used:
Format in all cases: cell-based, human
[1] = test system: hNEPT; experiment: TLDA qRT-PCR gene expression in BMP-7-treated hNEPT; conditions: BMP-7-treated vs untreated control
Method: The expression of 43 genes (including epithelial, acinar, islet and mesenchymal cell markers) was studied in hNEPT preparations (n=8) treated with BMP-7 and untreated controls at the same time point. […] GCK, MAFA and NKX6.1, as well as islet development markers HNF1B and NEUROD1 were also elevated.
(§1) hNEPT culture: Human islets were isolated at the DRI's cGMP facility following methods already described54, and hNEPT samples (2-4 ml) were obtained as an isolation byproduct. The cells were washed and seeded on tissue culture-treated plates in FBS- and trypsin inhibitor-supplemented RPMI 1640 medium (Gibco-Life Technologies, Grand Island, N.Y.). After 48 h, floating cells were removed with fresh medium replacement. The following day, cultures were either treated with 100 ng/ml BMP-7 (ProSpec-Tany TechnoGene; Ness Ziona, Israel) or remained in the starting medium as controls. Cells were allowed to grow 4-5 days and then the serum-containing medium was replaced by serum-free Advanced RPMI 1640 (Gibco-Life Technologies, Grand Island, N.Y.). Four to five days later the cells were either subjected to static incubation to evaluate their ability to respond to changing glucose concentration or collected for further assessments (such as C-peptide content, immunohistochemistry or cellular composition) or transplantation.
Quantitative Real Time RT-PCR: Samples were washed in PBS and resuspended in RNA later (Life Technologies—Ambion, Grand Island, N.Y.). RNA was extracted with the mirVana kit (Life Technologies-Applied Biosystems, Grand Island, N.Y.). 2 ng/μl of RNA was used for cDNA synthesis using High-Capacity cDNA Kit (Life Technologies-Applied Biosystems, Grand Island, N.Y.). Quantitative RT-PCR was performed with TaqMan assays (Life technologies—Applied Biosystems, Grand Island, N.Y.) following manufacturer's instructions. RNA expression was calculated as Relative Quantification (RQ) by Applied Biosystems software using the formula RQ=2−ddCT (ddCT=dCT of the sample−dCT of the control). dCT is the number of cycles normalized by endogenous control. Individual reactions were performed with a 7500 Fast Real Time PCR system (Life Technologies). Some experiments were performed using custom-made Taqman® Low Density Microarray (TLDA) cards containing 43 target genes and 3 endogenous genes (ubiquitin C, 18S rRNA and beta actin) and ran in a 7900 Real time PCR cycler (Life Technologies). Cts >35 were considered undetermined.

[2] = test system: hNEPT; experiment: hNEPT culture exposed to BMP-7: cluster/colony formation and DNA content
Method: Fresh hNEPT preparations were allowed to attach to tissue culture-treated plates for 48 h and subsequently exposed to BMP-7. The rationale behind the use of BMP-7 was that it may help reduce the incidence of EMT in cultured pancreatic exocrine tissue, as EMT has proven an obstacle for the formation of endocrine cells from exocrine cells in a similar setting^7. Control aliquots were cultured in the same conditions but without BMP-7. […] The growth of the colonies in the BMP-7 group was followed by in situ live cell imaging (Incucyte Zoom) (FIG. 1b and FIG. 8). This increase in size was paralleled by an average increase of 4.8-fold in DNA content from the time of attachment to day 12 (n=2), which further evidenced active cell proliferation.
hNEPT culture: Human islets were isolated at the DRI's cGMP facility following methods already described54, and hNEPT samples (2-4 ml) were obtained as an isolation byproduct. […]
Real-time colony growth assessment: In order to observe the formation and growth of the colonies we used an IncuCyteZOOM EssenBiosciences instrument (Ann Arbor, Michigan) within a Symphony Incubator purchased from VWR (Atlanta Ga.). The cells remain in their own culturing flask or plate, where growth can be observed and quantified over time. […]

[3] = test system: hNEPT; experiment: C-peptide content (ELISA, normalised to DNA) of hNEPT; conditions: for induction of C-peptide compared to t=0: n=4, P=0.06
Method: as §1
Glucose-stimulated insulin release (GSIR) and total insulin determination: GSIR was performed in six-well plate cultures. BMP-7-treated samples and untreated controls were washed twice with DMEM medium containing 2.5 mM glucose (Low glucose medium or L-medium). Upon addition of 2 ml of the same medium, the cells were cultured for 1 h at 37° C. to bring their insulin secretion to baseline. After 2 more washes, 1 ml of L-medium was added and the cells were returned to the incubator for 1 h. At the end of incubation period, the medium was collected and the cells exposed for 1 h to 1 ml of 20 mM glucose DMEM medium (high glucose medium or H-medium). After the collection of the H-medium supernatant, the cells were washed three times with L-medium and cultured again in low glucose conditions for 1 h. As before, supernatant was collected at the end of the incubation period. The second low glucose incubation is necessary to confirm that the cells are responding to glucose concentration changes in a physiological manner and not dumping insulin. After the last incubation, the cells were collected, washed in PBS and lysed with 1 ml of T-Per (Thermo Scientific, Rockford, Ill.). The lysates and the supernatants from GSIR test were evaluated with ELISA for C-peptide content (Mercodia, Uppsala, Sweden) following manufacturer's instructions. DNA content of the lysates was used to normalize the results (Pico-Green dsDNA Assay Kit, Life Technologies-Molecular Probes, Grand Island, N.Y.).

B1: BMP-7: 35 kDa homodimeric protein of the TGF-β superfamily; FDA-approved agent; human mature chain SEQ ID NO:1/2 (protein, listed as Homo sapiens)
chain: IRSTGSKQRSQNRSKTPKNQEALRMANVAENSSSDQRQACKKHELYVSFRDLGWQDWIIAPEGYAAYYCEGECAFPLNSYMNATNHAIVQTLVHFINPETVPKPCCAPTQLNAISVLYFDDSSNVILKKYRNMVVRACGCH
modifications: homodimer; human mature chain of BMP-7 (NCBI Reference Sequence NM_001719.2) comprising peptide from 293-431
In the case of B1, the “GCK, MAFA, NKX6.1, HNF1B and NEUROD1 expression” value [1] is reported as “elevated”, the “extra-insular genes KRT-19, CPA1 and PNLIP expression” value [1] is reported as “up-regulation” and the “ZEB2 expression (up-regulated)” value ([1]; P<0.05) is reported as 1.6 fold. For the same molecule, the “E-cadherin (CDH1) expression (up-regulated)” value ([1]; p<0.01) was 6 fold, the “EMT marker ZEB1 expression (down-regulated)” value ([1]; p<0.01) was 0.4 fold and the “PDX1 gene expression, average increase” value ([1]; same time point, n=8) was 29 fold. The “glucagon gene expression, average increase” value ([1]; same time point, n=8) was 92 fold, the “insulin gene expression, average increase” value ([1]; same time point, n=8) was 40 fold and the “pancreatic polypeptide (PPY) gene expression, average increase” value ([1]; same time point, n=8) was 14 fold. For the same molecule, the “somatostatin (SST) gene expression, average increase” value ([1]; same time point, n=8) was 28 fold, the “formation of cellular clusters” value ([2]; 100 ng/ml BMP-7, course of 12 days, controls became mesenchymal-like monolayers) was “induced the formation of abundant cellular clusters” and the “average increase in DNA content from the time of attachment to day 12” value ([2]; BMP-7 group, n=2) was 4.8 fold. For the same molecule, the “C-peptide production induction vs. t=0” value ([3]; BMP-4 vs BMP-7 comparison, n=6, P=0.43) was 156±32 fold, the “induction of C-peptide compared to t=0” value ([3]; BMP-7 alone, dorsomorphin experiment) was 314.1±152 fold and the “induction of C-peptide compared to t=0” value ([3]; BMP-7 in the presence of dorsomorphin (DM)) was 107.8±34.3 fold. The “C-peptide induction vs. t=0” value ([3]; THR-123 vs BMP-7 comparison, n=4, P=0.25) was 261±102 fold and the “average increase in total C-peptide vs. the initial material” value ([3]; day 12 vs day 0, 8 independent hNEPT preparations) was “two orders of magnitude”.
